Laboratory results from patent publication US20200010853, “METHOD FOR INSERTING DESIRED DNA FRAGMENT INTO SITE LOCATED ADJACENT TO BINDING DOMAIN OF DNA-BINDING PROTEIN” (KYUSHU UNIVERSITY, NATIONAL UNIVERSITY CORPORATION, published 2020).

Molecular target: Tn5 transposase (UniProt Q46731 Q46731:1-476)
Experiment: free adaptor added to Tn5 in fixed cells; integration with 5 mM MgCl2, 37 C; binding not measured separately
Conditions: chain copies: 2; partial duplex with 5' overhang
Procedure: Subsequently, TN5 transposase was added to the sample at a concentration of 85 μg/mL, and incubated at room temperature for 10 minutes. Thereby, transposase was bound to the transposase-binding sequence in the DNA fragment labeled to the nucleic acid-labeled secondary antibody.
Subsequently, a free DNA fragment (hereinafter, referred to as “oligo3-4”) having a transposase-binding sequence was added to the sample, reacted at room temperature for 1 hour, and then washed with PBS. The oligo3-4 was obtained by annealing a DNA fragment having a base sequence described in the Seq ID No. 3 and a DNA fragment having a base sequence described in the Seq ID No. 4. A double stranded DNA domain of the oligo3-4 was a binding sequence of TN5 transposase.

Tn5 transposase, sequence (Q46731 whole entry, one chain of several): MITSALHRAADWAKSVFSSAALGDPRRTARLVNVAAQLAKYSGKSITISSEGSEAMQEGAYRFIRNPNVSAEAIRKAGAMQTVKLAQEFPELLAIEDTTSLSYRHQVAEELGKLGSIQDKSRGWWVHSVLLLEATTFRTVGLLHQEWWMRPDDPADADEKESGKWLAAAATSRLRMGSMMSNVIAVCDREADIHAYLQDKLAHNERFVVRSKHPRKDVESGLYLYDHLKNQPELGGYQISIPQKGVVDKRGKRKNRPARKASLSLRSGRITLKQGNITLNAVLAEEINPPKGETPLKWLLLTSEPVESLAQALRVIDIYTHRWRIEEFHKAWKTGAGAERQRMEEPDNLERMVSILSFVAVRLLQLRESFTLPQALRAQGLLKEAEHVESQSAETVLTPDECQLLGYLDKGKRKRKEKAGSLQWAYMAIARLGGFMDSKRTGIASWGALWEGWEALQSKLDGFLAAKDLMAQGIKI

B1: oligo3-4 free Tn5 adaptor (mixed)
DNA 1: GTCTCGTGGGCTCGGAGATGTGTATAAGAGACAG
DNA 2: CTGTCTCTTATACACATCT
B1: binds.
